For 3 substances, amount of 32P incorporated into MBP, in vitro kinase assay on anti-HA immunoprecipitates (times higher compared to controls) and GLI activity, luciferase reporter p9XGliLuc in C3H10T1/2 cells results are on record in patent publication US6022708.

Assay [1] addresses Myelin Basic Protein (Sigma).
Assay [2] has as its target transcription factor GLI, the mammalian homologue of the Drosophila cubitus interruptus (Ci).

For “human fused (wild type, full length), HA epitope tagged (enzyme)”, the amount of 32P incorporated into MBP, in vitro kinase assay on anti-HA immunoprecipitates (times higher compared to controls) in assay [1] was 2. Same read-out and setting: the value for “fused KD (kinase domain of human fused alone), HA epitope tagged (enzyme)” was 3. The substance “human fused (wild type, full length), HA epitope tagged” registered a GLI activity, luciferase reporter p9XGliLuc in C3H10T1/2 cells in assay [2] of 9.5 fold.
